test system: KDM4A-I71AzF; assay: CASI: photo-crosslinking with HEK293T cell extracts, StrepTactin enrichment and LC-MS/MS proteomics; type: binding, human; settings: sheet "Final results but with 0.01";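 note: lysates from HEK293T cells pretreated with a KDM4 inhibitor to raise proteome methylation, affinity-purified after ±UV, gel-resolved, trypsin-digested, with exclusive unique peptides per protein averaged per condition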

Molecule | Fold change (+UV/-UV)
CATA_HUMAN (protein, UniProt P04040 2-527, looked up) Catalase: ADSRDPASDQMQHWKEQRAAQKADVLTTGAGNPVGDKLNVITVGPRGPLLVQDVVFTDEMAHFDRERIPERVVHAKGAGAFGYFEVTHDITKYSKAKVFEHIGKKTPIAVRFSTVAGESGSADTVRDPRGFAVKFYTEDGNWDLVGNNTPIFFIRDPILFPSFIHSQKRNPQTHLKDPDMVWDFWSLRPESLHQVSFLFSDRGIPDGHRHMNGYGSHTFKLVNANGEAVYCKFHYKTDQGIKNLSVEDAARLSQEDPDYGIRDLFNAIATGKYPSWTFYIQVMTFNQAETFPFNPFDLTKVWPHKDYPLIPVGKLVLNRNPVNYFAEVEQIAFDPSNMPPGIEASPDKMLQGRLFAYPDTHRHRLGPNYLHIPVNCPYRARVANYQRDGPMCMQDNQGGAPNYYPNSFGAPEQQPSALEHSIQYSGEVRRFNTANDDNVTQVRAFYVNVLNEEQRKRLCENIAGHLKDAQIFIQKKAVKNFTEVHPDYGSHIQALLDKYNAEKPKNAIHTFVQSGSHLAAREKANL | 2
PDIP3_HUMAN (protein, UniProt Q9BY77 2-421, looked up) Polymerase delta-interacting …: ADISLDELIRKRGAAAKGRLNARPGVGGVRSRVGIQQGLLSQSTRTATFQQRFDARQKIGLSDARLKLGVKDAREKLLQKDARFRIKGKVQDAREMLNSRKQQTTVPQKPRQVADAREKISLKRSSPAAFINPPIGTVTPALKLTKTIQVPQQKAMAPLHPHPAGMRINVVNNHQAKQNLYDLDEDDDGIASVPTKQMKFAASGGFLHHMAGLSSSKLSMSKALPLTKVVQNDAYTAPALPSSIRTKALTNMSRTLVNKEEPPKELPAAEPVLSPLEGTKMTVNNLHPRVTEEDIVELFCVCGALKRARLVHPGVAEVVFVKKDDAITAYKKYNNRCLDGQPMKCNLHMNGNVITSDQPILLRLSDSPSMKKESELPRRVNSASSSNPPAEVDPDTILKALFKSSGASVTTQPTEFKIKL | 1
ODBA_HUMAN (protein, UniProt P12694 46-445, looked up) 2-oxoisovalerate …: SSLDDKPQFPGASAEFIDKLEFIQPNVISGIPIYRVMDRQGQIINPSEDPHLPKEKVLKLYKSMTLLNTMDRILYESQRQGRISFYMTNYGEEGTHVGSAAALDNTDLVFGQYREAGVLMYRDYPLELFMAQCYGNISDLGKGRQMPVHYGCKERHFVTISSPLATQIPQAVGAAYAAKRANANRVVICYFGEGAASEGDAHAGFNFAATLECPIIFFCRNNGYAISTPTSEQYRGDGIAARGPGYGIMSIRVDGNDVFAVYNATKEARRRAVAENQPFLIEAMTYRIGHHSTSDDSSAYRSVDEVNYWDKQDHPISRLRHYLLSQGWWDEEQEKAWRKQSRRKVMEAFEQAERKPKPNPNLLFSDVYQEMPAQLRKQQESLARHLQTYGEHYPLDHFDK | 1
MCCB_HUMAN (protein, UniProt Q9HCC0 23-563, looked up) Methylcrotonoyl-CoA …: YHGDSVASLGTQPDLGSALYQENYKQMKALVNQLHERVEHIKLGGGEKARALHISRGKLLPRERIDNLIDPGSPFLELSQFAGYQLYDNEEVPGGGIITGIGRVSGVECMIIANDATVKGGAYYPVTVKKQLRAQEIAMQNRLPCIYLVDSGGAYLPRQADVFPDRDHFGRTFYNQAIMSSKNIAQIAVVMGSCTAGGAYVPAMADENIIVRKQGTIFLAGPPLVKAATGEEVSAEDLGGADLHCRKSGVSDHWALDDHHALHLTRKVVRNLNYQKKLDVTIEPSEEPLFPADELYGIVGANLKRSFDVREVIARIVDGSRFTEFKAFYGDTLVTGFARIFGYPVGIVGNNGVLFSESAKKGTHFVQLCCQRNIPLLFLQNITGFMVGREYEAEGIAKDGAKMVAAVACAQVPKITLIIGGSYGAGNYGMCGRAYSPRFLYIWPNARISVMGGEQAANVLATITKDQRAREGKQFSSADEAALKEPIIKKFEEEGNPYYSSARVWDDGIIDPADTRLVLGLSFSAALNAPIEKTDFGIFRM | 0.9333
PUR8_HUMAN (protein, UniProt P30566 2-484, looked up) Adenylosuccinate lyase: AAGGDHGSPDSYRSPLASRYASPEMCFVFSDRYKFRTWRQLWLWLAEAEQTLGLPITDEQIQEMKSNLENIDFKMAAEEEKRLRHDVMAHVHTFGHCCPKAAGIIHLGATSCYVGDNTDLIILRNALDLLLPKLARVISRLADFAKERASLPTLGFTHFQPAQLTTVGKRCCLWIQDLCMDLQNLKRVRDDLRFRGVKGTTGTQASFLQLFEGDDHKVEQLDKMVTEKAGFKRAFIITGQTYTRKVDIEVLSVLASLGASVHKICTDIRLLANLKEMEEPFEKQQIGSSAMPYKRNPMRSERCCSLARHLMTLVMDPLQTASVQWFERTLDDSANRRICLAEAFLTADTILNTLQNISEGLVVYPKVIERRIRQELPFMATENIIMAMVKAGGSRQDCHEKIRVLSQQAASVVKQEGGDNDLIERIQVDAYFSPIHSQLDHLLDPSSFTGRASQQVQRFLEEEVYPLLKPYESVMKVKAELCL | 0.3333
TPP1_HUMAN (protein, UniProt O14773 196-563, looked up) Tripeptidyl-peptidase 1: LHLGVTPSVIRKRYNLTSQDVGSGTSNNSQACAQFLEQYFHDSDLAQFMRLFGGNFAHQASVARVVGQQGRGRAGIEASLDVQYLMSAGANISTWVYSSPGRHEGQEPFLQWLMLLSNESALPHVHTVSYGDDEDSLSSAYIQRVNTELMKAAARGLTLLFASGDSGAGCWSVSGRHQFRPTFPASSPYVTTVGGTSFQEPFLITNEIVDYISGGGFSNVFPRPSYQEEAVTKFLSSSPHLPPSSYFNASGRAYPDVAALSDGYWVVSNRVPIPWVSGTSASTPVFGGILSLINEHRILSGRPPLGFLNPRLYQQHGAGLFDVTRGCHESCLDEEVEGQGFCSGPGWDPVTGWGTPNFPALLKTLLNP | 0
IDHP_HUMAN (protein, UniProt P48735 40-452, looked up) Isocitrate dehydrogenase …: ADKRIKVAKPVVEMDGDEMTRIIWQFIKEKLILPHVDIQLKYFDLGLPNRDQTDDQVTIDSALATQKYSVAVKCATITPDEARVEEFKLKKMWKSPNGTIRNILGGTVFREPIICKNIPRLVPGWTKPITIGRHAHGDQYKATDFVADRAGTFKMVFTPKDGSGVKEWEVYNFPAGGVGMGMYNTDESISGFAHSCFQYAIQKKWPLYMSTKNTILKAYDGRFKDIFQEIFDKHYKTDFDKNKIWYEHRLIDDMVAQVLKSSGGFVWACKNYDGDVQSDILAQGFGSLGLMTSVLVCPDGKTIEAEAAHGTVTRHYREHQKGRPTSTNPIASIFAWTRGLEHRGKLDGNQDLIRFAQMLEKVCVETVESGAMTKDLAGCIHGLSNVKLNEHFLNTTDFLDTIKSNLDRALGRQ | 0.4
CH60_HUMAN (protein, UniProt P10809 27-573, looked up) 60 kDa heat shock protein, …: AKDVKFGADARALMLQGVDLLADAVAVTMGPKGRTVIIEQSWGSPKVTKDGVTVAKSIDLKDKYKNIGAKLVQDVANNTNEEAGDGTTTATVLARSIAKEGFEKISKGANPVEIRRGVMLAVDAVIAELKKQSKPVTTPEEIAQVATISANGDKEIGNIISDAMKKVGRKGVITVKDGKTLNDELEIIEGMKFDRGYISPYFINTSKGQKCEFQDAYVLLSEKKISSIQSIVPALEIANAHRKPLVIIAEDVDGEALSTLVLNRLKVGLQVVAVKAPGFGDNRKNQLKDMAIATGGAVFGEEGLTLNLEDVQPHDLGKVGEVIVTKDDAMLLKGKGDKAQIEKRIQEIIEQLDVTTSEYEKEKLNERLAKLSDGVAVLKVGGTSDVEVNEKKDRVTDALNATRAAVEEGIVLGGGCALLRCIPALDSLTPANEDQKIGIEIIKRTLKIPAMTIAKNAGVEGSLIVEKIMQSSSEVGYDAMAGDFVNMVEKGIIDPTKVVRTALLDAAGVASLLTTAEVVVTEIPKEEKDPGMGAMGGMGGGMGGGMF | 1.043
SYYM_HUMAN (protein, UniProt Q9Y2Z4 17-477, looked up) Tyrosine--tRNA ligase, …: TLNLSVLLPLGLRKAHSGAQGLLAAQKARGLFKDFFPETGTKIELPELFDRGTASFPQTIYCGFDPTADSLHVGHLLALLGLFHLQRAGHNVIALVGGATARLGDPSGRTKEREALETERVRANARALRLGLEALAANHQQLFTDGRSWGSFTVLDNSAWYQKQHLVDFLAAVGGHFRMGTLLSRQSVQLRLKSPEGMSLAEFFYQVLQAYDFYYLFQRYGCRVQLGGSDQLGNIMSGYEFINKLTGEDVFGITVPLITSTTGAKLGKSAGNAVWLNRDKTSPFELYQFFVRQPDDSVERYLKLFTFLPLPEIDHIMQLHVKEPERRGPQKRLAAEVTKLVHGREGLDSAKRCTQALYHSSIDALEVMSDQELKELFKEAPFSEFFLDPGTSVLDTCRKANAIPDGPRGYRMITEGGVSINHQQVTNPESVLIVGQHILKNGLSLLKIGKRNFYIIKWLQL | 2
GLYM_HUMAN (protein, UniProt P34897 30-504, looked up) Serine …: NAAQTQTGEANRGWTGQESLSDSDPEMWELLQREKDRQCRGLELIASENFCSRAALEALGSCLNNKYSEGYPGKRYYGGAEVVDEIELLCQRRALEAFDLDPAQWGVNVQPYSGSPANLAVYTALLQPHDRIMGLDLPDGGHLTHGYMSDVKRISATSIFFESMPYKLNPKTGLIDYNQLALTARLFRPRLIIAGTSAYARLIDYARMREVCDEVKAHLLADMAHISGLVAAKVIPSPFKHADIVTTTTHKTLRGARSGLIFYRKGVKAVDPKTGREIPYTFEDRINFAVFPSLQGGPHNHAIAAVAVALKQACTPMFREYSLQVLKNARAMADALLERGYSLVSGGTDNHLVLVDLRPKGLDGARAERVLELVSITANKNTCPGDRSAITPGGLRLGAPALTSRQFREDDFRRVVDFIDEGVNIGLEVKSKTAKLQDFKSFLLKDSETSQRLANLRQRVEQFARAFPMPGFDEH | 0.3333
CBS_HUMAN (protein, UniProt P35520 1-551, looked up) Cystathionine beta-synthase: MPSETPQAEVGPTGCPHRSGPHSAKGSLEKGSPEDKEAKEPLWIRPDAPSRCTWQLGRPASESPHHHTAPAKSPKILPDILKKIGDTPMVRINKIGKKFGLKCELLAKCEFFNAGGSVKDRISLRMIEDAERDGTLKPGDTIIEPTSGNTGIGLALAAAVRGYRCIIVMPEKMSSEKVDVLRALGAEIVRTPTNARFDSPESHVGVAWRLKNEIPNSHILDQYRNASNPLAHYDTTADEILQQCDGKLDMLVASVGTGGTITGIARKLKEKCPGCRIIGVDPEGSILAEPEELNQTEQTTYEVEGIGYDFIPTVLDRTVVDKWFKSNDEEAFTFARMLIAQEGLLCGGSAGSTVAVAVKAAQELQEGQRCVVILPDSVRNYMTKFLSDRWMLQKGFLKEEDLTEKKPWWWHLRVQELGLSAPLTVLPTITCGHTIEILREKGFDQAPVVDEAGVILGMVTLGNMLSSLLAGKVQPSDQVGKVIYKQFKQIRLTDTLGRLSHILEMDHFALVVHEQIQYHSTGKSSQRQMVFGVVTAIDLLNFVAAQERDQK | 1.4

— article PMC10540216, “Activity Guided Azide-methyllysine Photo-trapping for Substrate Profiling of Lysine Demethylases” (Journal of the American Chemical Society, 2023)
